# T1: FAHD1 (Homo sapiens, UniProt Q6P587)
# T1 construct: His-tag (N); S-tag (N); made in house; host or cells: E. coli
# T1 sequence (Q6P587 25-221): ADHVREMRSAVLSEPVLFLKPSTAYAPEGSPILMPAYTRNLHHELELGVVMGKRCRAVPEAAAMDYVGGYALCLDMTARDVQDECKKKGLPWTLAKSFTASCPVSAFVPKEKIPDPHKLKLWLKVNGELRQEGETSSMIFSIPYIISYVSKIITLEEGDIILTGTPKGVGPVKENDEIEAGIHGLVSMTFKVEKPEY
# What was measured:
# FAHD1 = target: T1, FAHD1; assay: oxalate inhibitor assay (oxaloacetate decarboxylase assay); type: biochemical; details: purified recombinant wild-type FAHD1, room temperature, pH 7.4, absorbance 255 nm, FIG. 2C; read-out: IC50, inhibition of oxaloacetate decarboxylation by FAHD1
# Description: (§1) N-terminally His- and S-tagged versions of human wild-type FAHD1 and a double mutant (Asp102Ala, Arg106Ala) were recombinantly expressed in E. coli and purified as reported previously (Pircher et al., J Biol Chem, 2011, 286(42)).
# (§2) For measurement of oxaloacetate decarboxylase rates, 1 ml samples of 25 μM to 1 mM oxaloacetate in assay buffer (50 mM Tris-HCl, 100 mM KCl, 1 mM MgCl2, pH 7.4) containing purified FAHD1, FAHD1mut (3-60 μg, depending on substrate concentration) or no enzyme were prepared. Samples were incubated at room temperature and analysed in regular time intervals by measuring absorbance (infinite M200, Tecan) at 255 nm (ε=1070 M^−1 cm^−1) in disposable UV-cuvettes (Brand). Reaction mixtures containing no substrate were used as blank. For the oxalate inhibitor assay, the sample buffer was supplemented with 200 μM sodium oxalate. All rates were corrected for auto-decarboxylation under assay conditions.
# [1] = oxaloacetate decarboxylase assay, photometric, enzyme kinetics of purified FAHD1; type: biochemical, human; details: purified wild-type enzyme, room temperature, pH 7.4, FIG. 2A
# Description: as §1, §2
Molecule,IC50 (FAHD1) [µM],Km [1] [µM],Vmax of oxaloacetate degradation [1] [µmol/min/mg]
"O=C([O-])C(=O)[O-].[Na+].[Na+] [oxalate, sodium oxalate]",~20,–,–
"fumarylacetoacetate hydrolase domain containing protein 1 (protein, UniProt Q6P587 25-221, looked up, recombinant human wild-type FAHD1 expressed in E. coli) Oxaloacetate tautomerase …: ADHVREMRSAVLSEPVLFLKPSTAYAPEGSPILMPAYTRNLHHELELGVVMGKRCRAVPEAAAMDYVGGYALCLDMTARDVQDECKKKGLPWTLAKSFTASCPVSAFVPKEKIPDPHKLKLWLKVNGELRQEGETSSMIFSIPYIISYVSKIITLEEGDIILTGTPKGVGPVKENDEIEAGIHGLVSMTFKVEKPEY",–,32,0.21

# Source: US20170312343A1, “Uses of FAHD1” (UNIVERSITÄT INNSBRUCK, priority 2014, published 2017)
